Results from US20090317414A1 (4G VACCINES, published 2009).

B1: MUC1-8 (SAPDTRPA) (peptide)
peptide: SAPDTRPA
notes: Synthetic peptide, purity >95%; also called MUC1-8 peptide; parent non-canonical peptide MUC1-8
B2: soluble H-2K^b (soluble extracellular domains; heavy chain residues 1-274 with C-terminal His-tag and β2-microglobulin residues 1-99) (other)
chain: GPHSLRYFVTAVSRPGLGEPRYMEVGYVDDTEFVRFDSDAENPRYEPRARWMEQEGPEYWERETQKAKGNEQSFRVDLRTLLGYYNQSKGGSHTIQVISGCEVGSDGRLLRGYQQYAYDGCDYIALNEDLKTWTAADMAALITKHKWEQAGEAERLRAYLEGTCVEWLRRYLKNGNATLLRTDSPKAHVTHHSRPEDKVTLRCWALGFYPADITLTWQLNGEELIQDMELVETRPAGDGTFQKWASVVVPLGKEQYYTCHVYHQGLPEPLTLRWEPPPSTVSNM

Legend:
[1] = molecular target: B2; assay: inhibition assay with soluble H-2K^b, 4° C.
[2] = molecular target: B2; assay: inhibition assay with soluble H-2K^b, 23° C.
[3] = molecular target: B2; assay: inhibition assay with soluble H-2K^b, 37° C.
[4] = molecular target: T1, MHC class I H-2K^b on RMA-S cells (C57BL/6 TAP2-deficient cells) (mouse, UniProt P01887 21-119; P01901 22-369); assay: peptide stabilisation assay on RMA-S cells, flow cytometry with anti-H-2K^b
T1 construct: whole, on cells; Cell surface H-2K^b stabilised by added peptide and detected with anti-H-2K^b antibody HB-158
T1 sequence (MHC heavy, looked up): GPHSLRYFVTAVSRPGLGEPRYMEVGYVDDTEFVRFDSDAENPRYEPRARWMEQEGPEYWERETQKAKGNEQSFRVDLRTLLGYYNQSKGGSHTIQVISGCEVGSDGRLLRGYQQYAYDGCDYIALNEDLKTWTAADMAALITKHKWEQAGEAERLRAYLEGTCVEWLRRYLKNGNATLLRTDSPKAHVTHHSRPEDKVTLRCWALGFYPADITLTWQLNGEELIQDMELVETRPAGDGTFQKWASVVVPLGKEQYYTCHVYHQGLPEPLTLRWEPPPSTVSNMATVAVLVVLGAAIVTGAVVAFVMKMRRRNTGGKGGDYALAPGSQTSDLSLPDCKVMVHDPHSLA
T1 sequence (b2m, looked up): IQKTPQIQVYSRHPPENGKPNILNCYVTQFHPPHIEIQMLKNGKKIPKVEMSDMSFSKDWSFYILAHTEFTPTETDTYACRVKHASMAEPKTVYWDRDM
Description: MHC class I molecules in the murine cell line RMA-S (C57BL/6 TAP2-deficient cells) can be used to measure the direct binding of peptides to class I molecules in vitro. […] The cells were washed once again and 100 μl (1:500 dilution) of FITC-conjugated sheep (Fab′)₂ anti-mouse immunoglobulin was added and incubated for 45 min at 4° C.; after further washing, cells were analyzed by FACScan.

[5] = molecular target: B2; assay: inhibition assay with soluble H-2K^b, 23° C.; remark: listed apart in the source
[6] = molecular target: B2; assay: inhibition assay with soluble H-2K^b, 23° C. and 37° C.
[7] = molecular target: SEV9 ([…]), Sendai virus NP324-332 (Sendai virus); assay: inhibition assay with soluble H-2K^b, 4° C.
[8] = molecular target: SEV9 ([…]), Sendai virus NP324-332 (Sendai virus); assay: inhibition assay with soluble H-2K^b, 23° C.
[9] = molecular target: SEV9 ([…]), Sendai virus NP324-332 (Sendai virus); assay: inhibition assay with soluble H-2K^b, 37° C.

| Binder | Kd [1] [nM] | Kd [2] [nM] | Kd [3] [nM] | peptide concentration that stabilised H-2K^b [4] [nM] | fold increase in affinity against MUC1-8 [5] [fold] | fold increase in affinity against MUC1-8 [6] [fold] | Kd [7] [nM] | Kd [8] [nM] | Kd [9] [nM] |
| --- | --- | --- | --- | --- | --- | --- | --- | --- | --- |
| B1 | 433 | 877 | 37000 | > 100000 | – | – | – | – | – |
| SAPDFRPL (Synthetic peptide) [MUC1-8-5F8L (SAPDFRPL)] | 160 | 60 | 300 | > 1 | 14 | – | – | – | – |
| SAPDFRPA (Synthetic peptide) [MUC1-8-5F (SAPDFRPA)] | 460 | 130 | 4900 | > 100 | – | ≥ 7 | – | – | – |
| SAPDTRPL (Synthetic peptide) [MUC1-8-8L (SAPDTRPL)] | 150 | 250 | 8900 | > 1000 | – | ≥ 3 | – | – | – |
| SIINFEKL [OVA8 (SIINFEKL), Chicken ovalbumin257-264] | 6 | 10 | 82 | – | – | – | – | – | – |
| B2 | – | – | – | – | – | – | 5 | 3 | 30 |
